Assay results reported in doi:10.1101/151191 (bioRxiv, 2017).

How the values were obtained:
SEC = molecular target: the molecule itself; assay: SEC
AUC = molecular target: the molecule itself; assay: AUC

B1: α-mDelNT (N-terminal half of mouse α-Delphilin) (domain or fragment, UniProt Q0QWG9-2 1-558, looked up)
chain: MSCLGIFIPKKHRARFDEVVSQGLLGKLCRARRAQGAQRLRRSRSEERPERLLVSTRASAAPRRPDEPPPRKATSLLGGRTGPGGPRRTVRVYKGNKSFGFTLRGHGPVWIESVLPGSPAENASLKSGDRILFLNGLDMRNCSHDKVVSMLQGSGAMPTLVVEEGPVPFASDSDSLDSPTRASALTSLQWVADILPSSIRVQGRTFSQQLDHLLTPPERYGVCRALERFFQHRNIDTLIVDVYPVLDTPAKQVLWQFLYQLLTYEEQELCQEKIACFLGYTAMTEPESSLDLEPESTPEPTPEPQPRSSLRASSMCRRSLRSQGLETSLSCGPGDCPEMPLPLIPGERQAGDGTSLPETPNPKMMSAVYAELESRLNSSFKGKIGTMSKSRASPPVPSLVGTSGPRTLSGVSWPSDRLLPSPCYDPLCSGGLASPSSSESHPYASLDSSRAPSPQPGLGSIHADSPPSPDPIRPPSRRKLFAFSRPVRSRDTDRFLDALSEQLGPRLSIVDDFLTPENDYEEMSFHDDQGSFVTNERSSASECVSSSEEGSSLTYSSI
With B1 the “stoichiometry N” value (SEC) was 7 subunits and the “stoichiometry N” value (AUC) was 6 subunits.
